Data published in patent US8765444 (BOARD OF TRUSTEES OF THE UNIVERSITY OF ILLINOIS, dated 2014).

T1: TBK1 (as used in Example 6; construct not named) (Homo sapiens (Human), UniProt Q9UHD2 1-729)
T1 construct: also called HA-TBK1 (constructed, probably the one used)
T1 sequence: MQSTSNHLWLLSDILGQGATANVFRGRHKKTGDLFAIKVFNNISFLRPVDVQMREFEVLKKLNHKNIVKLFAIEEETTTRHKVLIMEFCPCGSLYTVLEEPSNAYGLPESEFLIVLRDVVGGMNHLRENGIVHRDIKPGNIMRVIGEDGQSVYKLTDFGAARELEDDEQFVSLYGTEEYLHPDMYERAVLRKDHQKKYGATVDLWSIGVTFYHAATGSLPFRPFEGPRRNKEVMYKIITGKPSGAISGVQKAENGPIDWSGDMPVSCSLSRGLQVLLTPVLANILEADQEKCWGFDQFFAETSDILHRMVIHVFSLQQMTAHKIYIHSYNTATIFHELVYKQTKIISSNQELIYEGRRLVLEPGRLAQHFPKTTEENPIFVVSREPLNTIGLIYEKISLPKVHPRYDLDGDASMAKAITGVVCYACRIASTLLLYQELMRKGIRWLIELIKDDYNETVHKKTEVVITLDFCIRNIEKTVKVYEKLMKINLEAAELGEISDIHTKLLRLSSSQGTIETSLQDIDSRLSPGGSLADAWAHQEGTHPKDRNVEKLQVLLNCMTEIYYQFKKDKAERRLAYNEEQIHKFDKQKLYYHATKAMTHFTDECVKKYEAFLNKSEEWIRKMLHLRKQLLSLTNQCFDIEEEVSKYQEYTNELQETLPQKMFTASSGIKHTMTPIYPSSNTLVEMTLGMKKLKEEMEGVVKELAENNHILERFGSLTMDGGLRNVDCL

B1: FLAG-γ134.5 N159 (other)
chain: MARRRRHRGPRRPRPPGPTGAVPTAQSQVTSTPNSEPAVRSAPAAAPPPPPASGPPPSCSLLLRQWLHVPESASDDDDDDDWPDSPPPEPAPEARPTAAAPRPRSPPPGAGPGGGANPSHPPSRPFRLPPRLALRLRVTAEHLARLRLRRAGGEGAPE
notes: Carboxyl-terminal domain deleted; the exact last residue (158 or 159) is uncertain
B2: FLAG-γ134.5 Δ30 (other)
chain: STPNSEPAVRSAPAAAPPPPPASGPPPSCSLLLRQWLHVPESASDDDDDDDWPDSPPPEPAPEARPTAAAPRPRSPPPGAGPGGGANPSHPPSRPFRLPPRLALRLRVTAEHLARLRLRRAGGEGAPEPPATPATPATPATPATPATPATPATPATPATPARVRFSPHVRVRHLVVWASAARLARRGSWARERADRARFRRRVAEAEAVIGPCLGPEARARALARGAGPANSV
notes: Deletion 'encompassing amino acids 1 to 30'
B3: FLAG-γ134.5 Δ72 (other)
chain: MARRRRHRGPRRPRPPGPTGAVPTAQSQVASDDDDDDDWPDSPPPEPAPEARPTAAAPRPRSPPPGAGPGGGANPSHPPSRPFRLPPRLALRLRVTAEHLARLRLRRAGGEGAPEPPATPATPATPATPATPATPATPATPATPATPARVRFSPHVRVRHLVVWASAARLARRGSWARERADRARFRRRVAEAEAVIGPCLGPEARARALARGAGPANSV
notes: Deletion 'encompassing amino acids 30 to 72'; the printed limits overlap with the neighbouring deletions, so the exact junction is uncertain

Target: T1, TBK1 (as used in Example 6; construct …)
Assay: co-immunoprecipitation from transfected 293T cells

Q: Does B1 bind?
A: binds

Q: Does B2 bind?
A: binds

Q: Does B3 bind?
A: binds
